Measurements reported in patent publication US20220090060A1 (Regeneron, published 2022).

Target: T1, hCD22.mmh (human, UniProt P20273 20-687)
T1 construct: Analyte of the Biacore assay; also called Recombinant CD22; human CD22
T1 sequence (looked up): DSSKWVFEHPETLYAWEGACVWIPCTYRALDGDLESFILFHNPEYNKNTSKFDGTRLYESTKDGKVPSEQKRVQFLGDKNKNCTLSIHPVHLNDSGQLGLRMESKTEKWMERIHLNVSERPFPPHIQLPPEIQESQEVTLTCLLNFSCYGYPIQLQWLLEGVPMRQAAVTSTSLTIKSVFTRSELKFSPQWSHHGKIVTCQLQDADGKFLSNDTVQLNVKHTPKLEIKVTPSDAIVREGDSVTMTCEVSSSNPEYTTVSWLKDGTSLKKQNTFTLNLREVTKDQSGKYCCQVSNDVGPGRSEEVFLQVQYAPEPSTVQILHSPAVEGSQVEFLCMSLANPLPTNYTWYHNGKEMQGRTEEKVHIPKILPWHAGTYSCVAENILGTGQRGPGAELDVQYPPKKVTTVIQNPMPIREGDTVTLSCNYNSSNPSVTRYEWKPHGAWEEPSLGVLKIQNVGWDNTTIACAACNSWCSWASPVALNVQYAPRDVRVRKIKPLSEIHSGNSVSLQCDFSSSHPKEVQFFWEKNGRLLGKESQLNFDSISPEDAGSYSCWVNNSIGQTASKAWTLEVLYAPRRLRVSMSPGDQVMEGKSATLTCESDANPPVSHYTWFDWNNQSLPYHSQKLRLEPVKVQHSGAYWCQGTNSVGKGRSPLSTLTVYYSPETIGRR
Experiment: SPR (Biacore), mAb captured from CHO supernatant on anti-human Fc, 25C pH 7.4

- Kd: 160 nM
- koff: 0.0117 s⁻¹
- kon: 73200 M⁻¹ s⁻¹
- t½: 1 min
B1: mAb23 (antibody, V domains shown)
VH: EVQLLESGGGLVQPGGSLRLSCAASGFTFSSYAMTWVRQAPGKGLEWVSTISGSGVSTYSADSVKGRFTISRDNSKNTLYLQMNSLRAEDTAVYYCALHWELLDAFDIWGQGTMVTVSS
VL: EIVLTQSPGTLSLSPGERATLSCRASQSISYNYLAWYQQKPGQAPRLLIYGASSRASGISDRFSGSGSGTDFTLTISRLEPEDFVVYYCQQYGSSPLTFGGGTKVEVK
